Assay results as given in paper PMC8024992.

Target: ubiquitin-rhodamine (Ub-Rho) (UniProt P0CG48)

KM (= k off/k on) from the KinTek global fit of activity data; +UAF1, Ub-Rho: 5.94 µM
Substance: USP1^WT-UAF1 (active) (from UniProt O94782;Q8TAF3) (complex)
